What was measured:
[1] = Surfactant resistance (residual activity), 0.04% SDS; format: biochemical; settings: 30 mM MES/21 mM Tris buffer (pH 6.5)
Procedure: (§1) An amadoriase crude enzyme solution or an amadoriase purified sample is diluted with a 30 mM MES/21 mM Tris buffer solution (pH6.5) so as to have a concentration of about 1.0 U/ml. To this, CTAC (for example, manufactured by Tokyo Kasei Kogyo Co., Ltd.) is added so as to obtain a final concentration 0.01% (w/v) or 0.04%. The resultant mixture is heated at 30° C. for 5 minutes. After heating, the mixture is diluted double with a 10 mM phosphate buffer (pH7.0) containing 0.15% BSA to prepare a sample. The enzyme activities of the sample before and after a surfactant treatment are measured by the method described in Section B above. […] In this manner, surfactant resistance is evaluated.
The stability of CFP-D was evaluated using sodium dodecyl sulfate (hereinafter indicated with “SDS”) in place of the surfactant CTAC used in Example 2. The surfactant resistance of the modified amadoriases was evaluated in accordance with a measurement method for surfactant resistance according to Example 1 although under surfactant treatment conditions in which the amadoriases were each diluted in a 30 mM MES/21 mM Tris buffer solution (pH 6.5) and mixed with 0.04% SDS. In this respect, it was confirmed that when the warmed sample was again measured for activity 30 minutes after 2-fold dilution in a BSA solution, there was no change in the activity value.

[2] = test system: CFP-T7; assay: Surfactant resistance of amadoriase during addition of each stabilizer (CFP-T7); format: biochemical, genus Coniochaeta; settings: Stabilizer None, 500 mM HEPES (pH 7.0), 0.01% CTAC
[3] = Surfactant resistance (residual activity) of purified enzymes with various surfactants; format: biochemical; settings: 20 mM potassium phosphate pH 7.0, purified enzyme
Procedure: An amadoriase crude enzyme solution or an amadoriase purified sample is diluted with a 30 mM MES/21 mM Tris buffer solution (pH6.5) so as to have a concentration of about 1.0 U/ml. To this, CTAC (for example, manufactured by Tokyo Kasei Kogyo Co., Ltd.) is added so as to obtain a final concentration 0.01% (w/v) or 0.04%. The resultant mixture is heated at 30° C. for 5 minutes. After heating, the mixture is diluted double with a 10 mM phosphate buffer (pH7.0) containing 0.15% BSA to prepare a sample. The enzyme activities of the sample before and after a surfactant treatment are measured by the method described in Section B above. The ratio of activity of the sample after the surfactant treatment relative to the activity of the sample before the surfactant treatment (regarded as 100), i.e., the residual activity (%), is obtained. In this manner, surfactant resistance is evaluated.
Using various surfactants, the stability of the purified enzymes CFP-T7, CFP-D2, and CFP-D7 obtained as described above was evaluated. The surfactant resistance of the modified amadoriases was evaluated in accordance with a measurement method for surfactant resistance according to Example 1 although under surfactant treatment conditions in which the amadoriases were each diluted in a 20 mM potassium phosphate buffer solution (pH 7.0) and mixed with any of various concentrations of the surfactants. In this respect, it was confirmed that when the warmed sample was again measured for activity 30 minutes after 2-fold dilution in a BSA solution, there was no change in the activity value.

[4] = Surfactant resistance (residual activity) of CFP-T7 single variants, 0.01% CTAC; format: biochemical; settings: 30°C, 5 minutes, 30 mM MES/21 mM Tris buffer (pH6.5), crude enzyme
Procedure: Reagent 1 (2.7 ml), reagent 2 (100 μl) and reagent 3 (100 μl) were mixed and preheated at 37° C. for 5 minutes. Then, to the mixture, an enzyme solution (100 μl) was added and thoroughly mixed. Thereafter, the absorbance of the mixture at 555 nm is measured by a spectrophotometer (U-3010, manufactured by Hitachi High-Technologies). Measurement is performed at 555 nm from one minute to three minutes and an absorbance change per minute is specified as the measurement value. A control solution is prepared in the same manner as above except that ion-exchanged water (100 μl) is used in place of reagent 3 (100 μl).
as §1, with “evaluated. […]” for “evaluated.”

B1: CFP-T7: amadoriase derived from the genus Coniochaeta, SEQ ID NO: 1; triple variant with mutations at positions 272, 302 and 388 (protein, listed as Coniochaeta sp.)
chain: MTSNRADTRVIVVGGGGTIGSSTALHLVRSGYAPANITVLDTFEIPSAQSAGHDLNKIMGIRLRNKVDLQMSLEARQMWKEDELFQPFFHNTGRMDCEHTPEGIEDLKKQYQALHDAGAGLEKTHAWLDNEDEILSKMPLLQRDQIQGWKAIWSQDGGWLAAAKAINAIGQFLKERGVKFGFGGAGSFKQPLFDDEGTTCIGVETADGTKYYADKVVLAAGAWSPTLVDLEDQCCSKAWVYAHIQLTPEEAAEYKGVPVVYNGEFGFFFEPDEFGVIKVCDEFPGFSRFKEHQPYGAPSPKRISVPRSHAKHPTDTYPDASEVSIKKAIATFLPRFQDKELFNRALCWCTDTADAALLMCEHPKWKNFILATGDSGHSFKILPNVGKYVVELIEGRLPEEMAYQWRWRPGGDALKSRRAAPPKDLADMPGWKHDPKL
[1]
  Residual Activity(%): 2.76%
[2]; Table 9-1
  CFP-T7 Residual Activity (%): 4.7%
[2]; Table 9-2
  CFP-T7 Residual Activity (%): 3.1%
[3]; Benzylcetyldimethyl ammonium Chloride (BCDAC) 0.04%
  Residual Activity(%): 1.4%
[3]; Benzyldodecyldimethyl ammonium Bromide (BDDAB) 0.10%
  Residual Activity(%): 1.4%
[3]; Benzyltetradecyldimethyl ammonium Chloride (BDTAC) 0.04%
  Residual Activity(%): 0.7%
[3]; Dodecylpyridinium Chloride (1-DPC) 0.16%
  Residual Activity(%): 3.4%
[3]; Dodecyltrimethylammonium Bromide (DTAB) 0.30%
  Residual Activity(%): 12.2%
[3]; Hexadecylpyridinium Bromide (1-CPB) 0.04%
  Residual Activity(%): 0.7%
[3]; Hexadecylpyridinium Chloride (1-CPC) 0.04%
  Residual Activity(%): 1.4%
[3]; Hexadecyltrimethylammonium Chloride (CTAC) 0.04%
  Residual Activity(%): 2.3%
[3]; N-Cetyl-4-methylpyridinium Chloride (4Me-1-CPC) 0.04%
  Residual Activity(%): 1.5%
[3]; Octadecyltrimethylammonium Bromide (STAB) 0.01%
  Residual Activity(%): 59.7%
[3]; Octadecyltrimethylammonium Chloride (STAC) 0.02%
  Residual Activity(%): 49.3%
[3]; Octyltrimethylammonium Bromide (OTAB) 0.80%
  Residual Activity(%): 87.7%
[3]; Octyltrimethylammonium Chloride (OTAC) 1.20%
  Residual Activity(%): 94.1%
[3]; Tetradecyltrimethylammonium Bromide (TTAB) 0.04%
  Residual Activity(%): 31.7%
[3]; Tetradecyltrimethylammonium Chloride (TTAC) 0.04%
  Residual Activity(%): 4.1%
[3]; Tributylhexadecyl phosphonium Bromide (TBCPB) 0.04%
  Residual Activity(%): 3.1%
[4]
  Residual Activity(%): 69.9%
